# Reference: the supplement of paper PMC9170038
# Test system: MS2 coat protein
# Assay: apparent KD of MS2 coat protein, switch ON state; designed switch direction (-1 OFF switch, 1 ON switch): -1; higher = weaker reporter binding
# Conditions: FMN input: 0 or 200 uM; Eterna round: R93 (includes R88 designs)
# Method in brief: (§1)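 The buffer was 100 mM Tris-HCl pH 7.5 with 80 mM KCl and 4 mM MgCl2, used without or with constant ligand. In it, RNA switches transcribed on-chip from Illumina sequencing clusters were titrated with SNAP-549-labelled MS2 coat protein in twofold steps from 0.7 or 1.5 nM to 3 µM. Apparent KD for each design is the median of its normalised cluster binding-curve fits.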
row,Sequence,apparent KD of MS2 coat protein [nM]
1,AACAGGUCAGGAUAUGUGGAAAAAAUAAAAAAAAAUAAAACACAGAAGGGACAUGAGGAUCACCCAUGUAAAUA [Mat - Exclusion 4 - Mayanna - D142],68.7
2,AGCUAGUCAGGAUAUACGAACAUGUCGAGAGACGUGAAGGGACAUGAGGAUCACCCAUGUAGAAGGGACUAGCA [Mat - Exclusion 2 - JL mod - D2],35.5
3,AACGAACAUGAGGAUCACCCAUGUCAGGAUAUGCAAAGAACGAUCGAACGAACGAUAAGCAGAAGGGACAGAGA [Amethyst 97],27.7
4,AUAAGAGCAGGAUAUACGUAUAUGAUGCCAGGACCGCGUCCACAUGAGGAUCACCCAUGUAGAAGGGCUUGAAA [Disoleve],35.7
5,AAAAAACAUGAGGAUCACCCAUGUCAGGAUAUCGUGCAGAAAAAAAAAAAAAACUGCACGAGAAGGGACAUGAA [Mod of jnicol],42
6,AGCUAGUCAGGAUAUACGAGCAUGUCAAAAGACGUGAAGGGACAUGAGGAUCACCCAUGUAGAAGGGACUAGCA [Diamond 22],40.3
7,AACAUGUAAGGAUAUGCUGCUCGUCACGAAAGUGAUGAGUAGCAGAAGGUACAUGAGGAUCACCCAUGUAAAGA,49
8,GGUUGUGUAGGAUAUACAUGAGGAUCACCCAUGUGAGAGAAAAAAGUGAGAAAGAAAAGUAGAAGGACGUGACG [salish99-ex3-72],45.3
9,AGCUAGUCAGGAUAUACGAACAUGUCGGAAGACGUGAAGGGACAUGAGGAUCACCCAUGUAGAAGGGACUAGCA [Mat - Exclusion 2 - JL mod - D3],33.1
10,AAAAAAAGAGGAUAUACGUGAAAAAUAAAAAUGUAAAAACCACAUGAGGAUCACCCAUGUAGAAGGCUUAAAAA [Ecx-I 62% 2],26.4
11,AAAAAGGGAGGAUAUGCAUACACACAAAAAAAAAAAAAGGGACAUGAGGAUCACCCAUGUAGAAGGCCCAAAAA [Dora Explored 5 - Jieux - Exclusion 2],29.9
12,AAAAUACAUGAGGAUCACCCAUGUGAGGAUAUCGUAAAGAAAGUGAUCAAAAGAAAUACGAGAAGGCACAUAAA [PK3],123
13,AAAAAGUGAGGAUAUGGUAAAAAAAAAAAAAAAAAAAAACUCCAGAAGGCACAUGAGGAUCACCCAUGUAAAAA [Jolly's Folly - Jieux - Exclusion 4],58.5
14,GGGCCACAUGAGGAUCACCCAUGUAAGGAUAUGCUAGGGAGGGAAAAAAUUUCGCCAGGCAGAAGGUACUAAAG [Janelle Amethyst 18 Mod 7 - Jieux - Exclusion 1],23.6
15,GAAAUACGAGGAUAUACAUGAGGAUCACCCAUGUCAAAAAAUGACUACACAAAAGAAAGUAGAAGGCGUAAAAG [Mat - Exclusion 3 - Mayanna mod - D128],28.6
16,AAGAACGUAGGAUAUACAUGAAAGAAAGAAAAGAAAAGAAAACAUGAGGAUCACCCAUGUAGAAGGACGUAGAA [EteRNA is fun!],20
17,AAAAAACAUGAGGAUCACCCAUGUUAGGAUAUCGUGCAGAAAAAAAAAAAAAACUGCACGAGAAGGAACAAGGA [Brourd - Exclusion 1 - Sub 2],29.1

row,Sequence,apparent KD of MS2 coat protein [nM]
1,AGGAAGUGAGGAUAUGCAGCAUAUAGUGGACGCUAUAGCAUGUAGAAGGCACAUGAGGAUCACCCAUGUUUAAA [EX4 Malc#38],30.8
2,GAAAAGUCAGGAUAUGCAGAAAAAAAAACGAAAAAAAAACUGCAGAAGGGACAUGAGGAUCACCCAUGUUAAAG [Mat - Exclusion 4 - Mayanna - D128],50.9
3,AAAAAAGGAGGAUAUACGAACAUGUCAAAAGACGUGAAGGGACAUGAGGAUCACCCAUGUAGAAGGUCUAAAAA [JL Part Open 35],52.3
4,CCUAAACAUGAGGAUCACCCAUGUGAGGAUAUGAUGCGAAUAAAGAAAGAAGAAAGCAUCAGAAGGCACAUAGG,41.1
5,AAAAAACAUGAGGAUCACCCAUGUGAGGAUAUGCAAAACCCAUAUAAAAAGAGAAAAAGCAGAAGGCACAAAAA [wbt round 1 mod],25.8
6,AAGAAGUGAGGAUAUGUCUGUGCGAAAAAAAAAAAGUGCAGACAGAAGGCACAUGAGGAUCACCCAUGUCAAAA [Florian Witold Znaniecki],39.4
7,AAUAAGUGAGGAUAUGGAAAUAAUAAAUAAAAUACCCUAAACCAGAAGGCACAUGAGGAUCACCCAUGUAAAUA [JR_Exc004_Sub003],34.1
8,CUCAAGUUAGGAUAUCCAAGAAAAGAAGAGAAAGAAAAGAAGGAGAAGGAACAUGAGGAUCACCCAUGUAAGAA [EteRNA is fun!],32.8
9,CGCAAGUCAGGAUAUUCGACAGGUAAAUCAGUAGAUCAGAAGAAGAAGGGACAUGAGGAUCACCCAUGUAAGUA [JR_Exc004_Sub405],41.1
10,AGUUGGCGAGGAUAUACAUGAGGAUCACCCAUGUGAUAGAAAAAAGUGAGAAAGAAAAGUAGAAGGCGCUGACA [Mat - Exclusion 3 - Lego mod - D92],69.9
11,AGGAUGUCAGGAUAUGUGUAAAGAAUAAAACAAAUAACAACACAGAAGGGACAUGAGGAUCACCCAUGUUACCC [May 38],17.1
12,AGCUAGUCAGGAUAUGCAUGAAAAAAAAAAAAAAAAAAAAAACAUGAGGAUCACCCAUGUAGAAGGGACUAGCA [Starry Exclusion 2 (jandersonlee round 1 mod)],126
13,AAUAAGUGAGGAUAUACGAAAUAAAUAAAUAAAUAAAUAAAGUAGAAGGCACAUGAGGAUCACCCAUGUAAUAA [My Mind Is Going Dave],34.4
14,"AAAAAGGGAGGAUAUACAUGAGGAUCACCCAUGUAUCAGACGAAAAAGAGUCUGGAAUGUAGAAGGCCCAAAAA [65%, Moding Exclusion3-cac2, 3]",14.3
15,AAGAAUUCAGGAUAUACAAGGAAGAAAGAAAAGAAAAGAAAACAUGAGGAUCACCCAUGUAGAAGGGAAUAGAA [EteRNA is fun!],40
16,AAGUAUCGAGGAUAUACAUAGAUACAGAUUCAUGUAGAACUACAUGAGGAUCACCCAUGUAGAAGGCGAUAAUA [AJ 33],31.8
17,GUCCGACAUGAGGAUCACCCAUGUAAGGAUAUGUAUCCUUCGGCCCGAACCAGAGGAAGCAGAAGGUACAGGGA [Oneserqu],24.8

# Test system: MS2 coat protein
# Assay: apparent KD of MS2 coat protein, switch OFF state (with FMN for OFF switches, without FMN for ON switches); designed switch direction (-1 OFF switch, 1 ON switch): -1; higher = weaker reporter binding
# Conditions: FMN input: 0 or 200 uM; Eterna round: R93 (includes R88 designs)
# Method in brief: as §1
row,Sequence,apparent KD of MS2 coat protein [nM]
1,AACAGGUCAGGAUAUGUGGAAAAAAUAAAAAAAAAUAAAACACAGAAGGGACAUGAGGAUCACCCAUGUAAAUA [Mat - Exclusion 4 - Mayanna - D142],59.2
2,AGCUAGUCAGGAUAUACGAACAUGUCGAGAGACGUGAAGGGACAUGAGGAUCACCCAUGUAGAAGGGACUAGCA [Mat - Exclusion 2 - JL mod - D2],170
3,AACGAACAUGAGGAUCACCCAUGUCAGGAUAUGCAAAGAACGAUCGAACGAACGAUAAGCAGAAGGGACAGAGA [Amethyst 97],40.4
4,AUAAGAGCAGGAUAUACGUAUAUGAUGCCAGGACCGCGUCCACAUGAGGAUCACCCAUGUAGAAGGGCUUGAAA [Disoleve],19.2
5,AAAAAACAUGAGGAUCACCCAUGUCAGGAUAUCGUGCAGAAAAAAAAAAAAAACUGCACGAGAAGGGACAUGAA [Mod of jnicol],94.9
6,AGCUAGUCAGGAUAUACGAGCAUGUCAAAAGACGUGAAGGGACAUGAGGAUCACCCAUGUAGAAGGGACUAGCA [Diamond 22],122
7,AACAUGUAAGGAUAUGCUGCUCGUCACGAAAGUGAUGAGUAGCAGAAGGUACAUGAGGAUCACCCAUGUAAAGA,156
8,GGUUGUGUAGGAUAUACAUGAGGAUCACCCAUGUGAGAGAAAAAAGUGAGAAAGAAAAGUAGAAGGACGUGACG [salish99-ex3-72],42.7
9,AGCUAGUCAGGAUAUACGAACAUGUCGGAAGACGUGAAGGGACAUGAGGAUCACCCAUGUAGAAGGGACUAGCA [Mat - Exclusion 2 - JL mod - D3],136
10,AAAAAAAGAGGAUAUACGUGAAAAAUAAAAAUGUAAAAACCACAUGAGGAUCACCCAUGUAGAAGGCUUAAAAA [Ecx-I 62% 2],22.8
11,AAAAAGGGAGGAUAUGCAUACACACAAAAAAAAAAAAAGGGACAUGAGGAUCACCCAUGUAGAAGGCCCAAAAA [Dora Explored 5 - Jieux - Exclusion 2],25.1
12,AAAAUACAUGAGGAUCACCCAUGUGAGGAUAUCGUAAAGAAAGUGAUCAAAAGAAAUACGAGAAGGCACAUAAA [PK3],212
13,AAAAAGUGAGGAUAUGGUAAAAAAAAAAAAAAAAAAAAACUCCAGAAGGCACAUGAGGAUCACCCAUGUAAAAA [Jolly's Folly - Jieux - Exclusion 4],5290
14,GGGCCACAUGAGGAUCACCCAUGUAAGGAUAUGCUAGGGAGGGAAAAAAUUUCGCCAGGCAGAAGGUACUAAAG [Janelle Amethyst 18 Mod 7 - Jieux - Exclusion 1],31.4
15,GAAAUACGAGGAUAUACAUGAGGAUCACCCAUGUCAAAAAAUGACUACACAAAAGAAAGUAGAAGGCGUAAAAG [Mat - Exclusion 3 - Mayanna mod - D128],38.4
16,AAGAACGUAGGAUAUACAUGAAAGAAAGAAAAGAAAAGAAAACAUGAGGAUCACCCAUGUAGAAGGACGUAGAA [EteRNA is fun!],22.1
17,AAAAAACAUGAGGAUCACCCAUGUUAGGAUAUCGUGCAGAAAAAAAAAAAAAACUGCACGAGAAGGAACAAGGA [Brourd - Exclusion 1 - Sub 2],44.9

row,Sequence,apparent KD of MS2 coat protein [nM]
1,AGGAAGUGAGGAUAUGCAGCAUAUAGUGGACGCUAUAGCAUGUAGAAGGCACAUGAGGAUCACCCAUGUUUAAA [EX4 Malc#38],34.9
2,GAAAAGUCAGGAUAUGCAGAAAAAAAAACGAAAAAAAAACUGCAGAAGGGACAUGAGGAUCACCCAUGUUAAAG [Mat - Exclusion 4 - Mayanna - D128],33.1
3,AAAAAAGGAGGAUAUACGAACAUGUCAAAAGACGUGAAGGGACAUGAGGAUCACCCAUGUAGAAGGUCUAAAAA [JL Part Open 35],34.1
4,CCUAAACAUGAGGAUCACCCAUGUGAGGAUAUGAUGCGAAUAAAGAAAGAAGAAAGCAUCAGAAGGCACAUAGG,283
5,AAAAAACAUGAGGAUCACCCAUGUGAGGAUAUGCAAAACCCAUAUAAAAAGAGAAAAAGCAGAAGGCACAAAAA [wbt round 1 mod],40.4
6,AAGAAGUGAGGAUAUGUCUGUGCGAAAAAAAAAAAGUGCAGACAGAAGGCACAUGAGGAUCACCCAUGUCAAAA [Florian Witold Znaniecki],39
7,AAUAAGUGAGGAUAUGGAAAUAAUAAAUAAAAUACCCUAAACCAGAAGGCACAUGAGGAUCACCCAUGUAAAUA [JR_Exc004_Sub003],28
8,CUCAAGUUAGGAUAUCCAAGAAAAGAAGAGAAAGAAAAGAAGGAGAAGGAACAUGAGGAUCACCCAUGUAAGAA [EteRNA is fun!],38.5
9,CGCAAGUCAGGAUAUUCGACAGGUAAAUCAGUAGAUCAGAAGAAGAAGGGACAUGAGGAUCACCCAUGUAAGUA [JR_Exc004_Sub405],24.3
10,AGUUGGCGAGGAUAUACAUGAGGAUCACCCAUGUGAUAGAAAAAAGUGAGAAAGAAAAGUAGAAGGCGCUGACA [Mat - Exclusion 3 - Lego mod - D92],254
11,AGGAUGUCAGGAUAUGUGUAAAGAAUAAAACAAAUAACAACACAGAAGGGACAUGAGGAUCACCCAUGUUACCC [May 38],17.7
12,AGCUAGUCAGGAUAUGCAUGAAAAAAAAAAAAAAAAAAAAAACAUGAGGAUCACCCAUGUAGAAGGGACUAGCA [Starry Exclusion 2 (jandersonlee round 1 mod)],212
13,AAUAAGUGAGGAUAUACGAAAUAAAUAAAUAAAUAAAUAAAGUAGAAGGCACAUGAGGAUCACCCAUGUAAUAA [My Mind Is Going Dave],29.7
14,"AAAAAGGGAGGAUAUACAUGAGGAUCACCCAUGUAUCAGACGAAAAAGAGUCUGGAAUGUAGAAGGCCCAAAAA [65%, Moding Exclusion3-cac2, 3]",25
15,AAGAAUUCAGGAUAUACAAGGAAGAAAGAAAAGAAAAGAAAACAUGAGGAUCACCCAUGUAGAAGGGAAUAGAA [EteRNA is fun!],26.6
16,AAGUAUCGAGGAUAUACAUAGAUACAGAUUCAUGUAGAACUACAUGAGGAUCACCCAUGUAGAAGGCGAUAAUA [AJ 33],79.3
17,GUCCGACAUGAGGAUCACCCAUGUAAGGAUAUGUAUCCUUCGGCCCGAACCAGAGGAAGCAGAAGGUACAGGGA [Oneserqu],20.9
